Experimental findings from paper PMC9822992, “Conformational plasticity of NaK2K and TREK2 potassium channel selectivity filters” (Nature Communications, 2023) are described below.

Data set [1] concerns the target cysteine-less TREK2 S105C (Gly67 to Glu340). Put plainly: SEC; Superdex-200 10/300, 20 mM Tris, 150 mM KCl, 2 mM DDM, pH 8, 4 °C; oligomer fractions of labelled TREK2 collected.
Data set [2] concerns the molecule itself. In words: SEC; Superdex-200 10/300, 20 mM Hepes, 150 mM KCl, 5 mM DM, pH 7.5, 4 °C; tetrameric fractions pooled (again after fluorophore labelling). (In general: SEC sorts molecules by how far they enter the pores of the column.)

“cysteine-less TREK2 S105C (Gly67 to Glu340)” registered a stoichiometry N in data set [1] of 2.

B1: tandem dimeric NaK Δ19 T73C (other)
chain: KDKEFQVLFVLTILTLISGTIFYSTVEGLRPIDALYFSVVTLTTVGDGNFSPQCDFGKIFTILYIFIGIGLVFGFIHKLAVNVQLPSILSNRKKEGGGSGGGSKDKEFQVLFVLTILTLISGTIFYSTVEGLRPIDALYFSVVTLTTVGDGNFSPQTDFGKIFTILYIFIGIGLVFGFIHKLAVNVQLPSILSNRKKE
modifications: Alexa Fluor 555 or Alexa Fluor 647 c2 maleimide on T73C
notes: NaK (Na+- and K+-conducting) channel from Bacillus cereus, Δ19 construct, first subunit (S1) of the tandem, carries T73C; linker between the two copies; NaK channel from Bacillus cereus, Δ19 construct, second subunit of the tandem, without cysteine; pET28a; Two tandem dimers form the tetrameric channel; whether a His8 also follows the first copy inside the tandem is not clear; also called NaK …
As to B1, in data set [2], the binding result is “binds”.

B2: tandem dimeric NaK2K Δ19 T73C (other)
chain: KDKEFQVLFVLTILTLISGTIFYSTVEGLRPIDALYFSVVTLTTVGYGDFSPQCDFGKIFTILYIFIGIGLVFGFIHKLAVNVQLPSILSNRKKEGGGSGGGSKDKEFQVLFVLTILTLISGTIFYSTVEGLRPIDALYFSVVTLTTVGYGDFSPQTDFGKIFTILYIFIGIGLVFGFIHKLAVNVQLPSILSNRKKE
modifications: Alexa Fluor 555 or Alexa Fluor 647 c2 maleimide on T73C
notes: NaK channel from Bacillus cereus, Δ19 construct, NaK2K mutant (selectivity filter TVGDGN changed to TVGYGD), first subunit (S1) of the tandem, carries T73C; positions 63-68 are worked out from the printed Asn68; linker between the two copies; NaK channel from Bacillus cereus, Δ19 construct, NaK2K mutant (TVGDGN changed to TVGYGD), second subunit of the tandem, without cysteine; pET28a; Two tandem …
On to B2, for which the binding result in data set [2] was “binds”.

B3: monomeric NaK Δ19 T73C (with F92A) (other)
chain: KDKEFQVLFVLTILTLISGTIFYSTVEGLRPIDALYFSVVTLTTVGDGNFSPQCDFGKIFTILYIFIGIGLVAGFIHKLAVNVQLPSILSNRKKE
notes: NaK channel from Bacillus cereus, Δ19 construct, monomeric; In the cross-linking experiment T73C was reacted with bis-maleimide PEG (Bis-Mal-dPEG3, 3 nm, or Bis-Mal-dPEG11, 6 nm); also called NaK T73C; not shown: His8, C-terminal, kept
For the molecule B3, the “stoichiometry N” value in data set [2] was determined as 4.

B4: monomeric NaK2K Δ19 T73C (with F92A) (other)
chain: KDKEFQVLFVLTILTLISGTIFYSTVEGLRPIDALYFSVVTLTTVGYGDFSPQCDFGKIFTILYIFIGIGLVAGFIHKLAVNVQLPSILSNRKKE
notes: NaK channel from Bacillus cereus, Δ19 construct, NaK2K mutant (TVGDGN changed to TVGYGD), monomeric; positions 63-68 are worked out from the printed Asn68; Channels 'formed as tetramers of monomeric, not tandem dimeric, constructs'; In the cross-linking experiment T73C was reacted with bis-maleimide PEG (3 nm or 6 nm); also called NaK2K T73C; not shown: His8, C-terminal, kept
Consider B4, for which, in data set [2], the “stoichiometry N” value stood at 4.

One may read the stoichiometry N as the number of molecules, sites or subunits per partner or assembly.
